Experimental data reported in patent CN114591430A.
Several values for one entry are separate records, joined by “and”; a condition that tells them apart may be missing. Equal entries are not always repeated.

Key:
[1] = biological target: 牛血清白蛋白(BSA) (bovine) (UniProt P02769); test: ELISA, BSA coated at 1 ug/ml, biotin-labelled antibody at dilution 512K, HRP-avidin
[2] = biological target: 牛血清白蛋白(BSA) (bovine) (UniProt P02769); test: sandwich ELISA, coat B2 2 ug/ml, BSA 0.75 ng/ml, detection biotin-B6 0.2 ug/ml
[3] = biological target: 牛血清白蛋白(BSA) (bovine) (UniProt P02769); test: sandwich ELISA, coat B2 2 ug/ml, BSA 1.5 ng/ml, detection biotin-B6 0.2 ug/ml, mean of A and B
[4] = biological target: 牛血清白蛋白(BSA) (bovine) (UniProt P02769); test: indirect ELISA, BSA coated at 1 ug/ml, purified antibody at dilution 2K, HRP goat anti-mouse IgG
[5] = biological target: 牛血清白蛋白(BSA) (bovine) (UniProt P02769); test: sandwich ELISA, coat B2 2 ug/ml, BSA 48 ng/ml, detection biotin-B6 0.2 ug/ml, mean of A and B
[6] = biological target: HEK293细胞裂解液; test: sandwich ELISA, coat B2, detection biotin-B6, lysate 500 ug/ml
[7] = biological target: Vero细胞裂解液; test: as above
[8] = biological target: CHO细胞裂解液; test: as above
[9] = biological target: 牛血清白蛋白(BSA) (bovine) (UniProt P02769); test: sandwich ELISA, coat B2 2 ug/ml, BSA 1 ng/ml, detection biotin-B4 0.2 ug/ml
[10] = biological target: 牛血清白蛋白(BSA) (bovine) (UniProt P02769); test: ELISA, BSA coated at 1 ug/ml, biotin-labelled antibody at dilution 1K, HRP-avidin
[11] = biological target: HEK293细胞裂解液; test: sandwich ELISA, coat B2, detection biotin-B6, lysate 31.25 ug/ml
[12] = biological target: Vero细胞裂解液; test: as above
[13] = biological target: CHO细胞裂解液; test: as above
[14] = biological target: 牛血清白蛋白(BSA) (bovine) (UniProt P02769); test: sandwich ELISA, coat B2 2 ug/ml, BSA 1 ng/ml, detection biotin-B5 0.2 ug/ml
[15] = biological target: 牛血清白蛋白(BSA) (bovine) (UniProt P02769); test: indirect ELISA, BSA coated at 1 ug/ml, purified antibody at dilution 4K, HRP goat anti-mouse IgG
[16] = biological target: 牛血清白蛋白(BSA) (bovine) (UniProt P02769); test: sandwich ELISA, coat B2 2 ug/ml, BSA 3 ng/ml, detection biotin-B6 0.2 ug/ml, mean of A and B
[17] = biological target: 牛血清白蛋白(BSA) (bovine) (UniProt P02769); test: sandwich ELISA, coat B2 2 ug/ml, BSA 0.75 ng/ml, detection biotin-B6 0.2 ug/ml, mean of A and B
[18] = biological target: 牛血清白蛋白(BSA) (bovine) (UniProt P02769); test: indirect ELISA, BSA coated at 1 ug/ml, purified antibody at dilution 1024K, HRP goat anti-mouse IgG
[19] = biological target: 牛血清白蛋白(BSA) (bovine) (UniProt P02769); test: sandwich ELISA, coat B2 2 ug/ml, BSA 12 ng/ml, detection biotin-B6 0.2 ug/ml
[20] = biological target: 牛血清白蛋白(BSA) (bovine) (UniProt P02769); test: sandwich ELISA, coat B2 2 ug/ml, BSA 24 ng/ml, detection biotin-B6 0.2 ug/ml
[21] = biological target: 牛血清白蛋白(BSA) (bovine) (UniProt P02769); test: sandwich ELISA, coat B2 2 ug/ml, BSA 3 ng/ml, detection biotin-B6 0.2 ug/ml
[22] = biological target: HEK293细胞裂解液; test: sandwich ELISA, coat B2, detection biotin-B6, lysate 62.5 ug/ml
[23] = biological target: HEK293细胞裂解液; test: sandwich ELISA, coat B2, detection biotin-B6, lysate 15.63 ug/ml
[24] = biological target: Vero细胞裂解液; test: as above
[25] = biological target: CHO细胞裂解液; test: as above
[26] = biological target: 牛血清白蛋白(BSA) (bovine) (UniProt P02769); test: sandwich ELISA, coat B2 2 ug/ml, BSA 1 ng/ml, detection biotin-B1 0.2 ug/ml
[27] = biological target: 牛血清白蛋白(BSA) (bovine) (UniProt P02769); test: ELISA, BSA coated at 1 ug/ml, biotin-labelled antibody at dilution 256K, HRP-avidin
[28] = biological target: 牛血清白蛋白(BSA) (bovine) (UniProt P02769); test: indirect ELISA, BSA coated at 1 ug/ml, purified antibody at dilution 128K, HRP goat anti-mouse IgG
[29] = biological target: 牛血清白蛋白(BSA) (bovine) (UniProt P02769); test: indirect ELISA, BSA coated at 1 ug/ml, purified antibody at dilution 512K, HRP goat anti-mouse IgG
[30] = biological target: 牛血清白蛋白(BSA) (bovine) (UniProt P02769); test: sandwich ELISA, coat B2 2 ug/ml, BSA 1 ng/ml, detection biotin-B6 0.2 ug/ml
[31] = biological target: 牛血清白蛋白(BSA) (bovine) (UniProt P02769); test: ELISA, BSA coated at 1 ug/ml, biotin-labelled antibody at dilution 4K, HRP-avidin
[32] = biological target: 牛血清白蛋白(BSA) (bovine) (UniProt P02769); test: indirect ELISA, BSA coated at 1 ug/ml, purified antibody at dilution 32K, HRP goat anti-mouse IgG
[33] = biological target: 牛血清白蛋白(BSA) (bovine) (UniProt P02769); test: sandwich ELISA, coat B2 2 ug/ml, BSA 6 ng/ml, detection biotin-B6 0.2 ug/ml, mean of A and B
[34] = biological target: 牛血清白蛋白(BSA) (bovine) (UniProt P02769); test: indirect ELISA, BSA coated at 1 ug/ml, purified antibody at dilution 256K, HRP goat anti-mouse IgG

UniProt P02769, sequence (P02769 25-607): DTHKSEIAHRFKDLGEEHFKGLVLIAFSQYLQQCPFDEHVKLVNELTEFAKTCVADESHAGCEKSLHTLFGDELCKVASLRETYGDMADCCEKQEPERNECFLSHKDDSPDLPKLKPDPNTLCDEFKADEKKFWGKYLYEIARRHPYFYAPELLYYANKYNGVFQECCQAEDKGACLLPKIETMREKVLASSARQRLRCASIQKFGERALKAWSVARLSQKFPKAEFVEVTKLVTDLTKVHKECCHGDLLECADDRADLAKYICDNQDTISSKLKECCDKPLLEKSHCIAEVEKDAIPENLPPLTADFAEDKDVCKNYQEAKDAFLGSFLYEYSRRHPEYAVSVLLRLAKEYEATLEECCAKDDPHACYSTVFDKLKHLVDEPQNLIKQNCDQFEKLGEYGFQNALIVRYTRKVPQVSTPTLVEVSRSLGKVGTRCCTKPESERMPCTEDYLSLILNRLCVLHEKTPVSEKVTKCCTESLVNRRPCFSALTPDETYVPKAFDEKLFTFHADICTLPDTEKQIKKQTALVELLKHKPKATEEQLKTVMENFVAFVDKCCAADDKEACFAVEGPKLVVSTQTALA

B1: BSA抗体B2 (antibody, V domains shown)
VH: VKLQESGGGLVKPGGSLKLSCAASGFTFSLYDESWVRQTPEKRLEWVAEIFLGVYRYVPESKVRFTMSRDNAKNTLYLQMSSLRSEDTAMYYCVRLCYWEPEVKKCWGQGTTVTVSS
VL: DIELTQSPLTLSVTIGQPASISCESDLSLKESLDWLLQRPGQSPKRLIYEDLNADCGVPDRFTGSGSGTDSTLKISRVEAEDLGVYYCEIKGTFRWSFGGGTKLEIK
[1]
  OD450: 0.308
[2]
  OD450: 0.31 and 0.296
[3]
  OD450 (平均值): 0.408
[4]
  OD450: 1.69
[5]
  OD450 (平均值): 2.21
[6]
  OD450: 0.139
[7]
  OD450: 0.134
[8]
  OD450: 0.135
[9]
  OD450: 0.319 and 0.332
[10]
  OD450: 2.3
[11]
  OD450: 0.134
[12]
  OD450: 0.142
[13]
  OD450: 0.136
[14]
  OD450: 0.312 and 0.315
[15]
  OD450: 0.9
[16]
  OD450 (平均值): 0.512
[17]
  OD450 (平均值): 0.303
[18]
  OD450: 0.144
[19]
  OD450: 1.01 and 1
[20]
  OD450: 1.51 and 1.5
[21]
  OD450: 0.509 and 0.515
[22]
  OD450: 0.142
[23]
  OD450: 0.136
[24]
  OD450: 0.136
[25]
  OD450: 0.141
[26]
  OD450: 0.312 and 0.315
[27]
  OD450: 0.509
[28]
  OD450: 0.357
[29]
  OD450: 0.137
[30]
  OD450: 0.38 and 0.378
[31]
  OD450: 2.02
[32]
  OD450: 0.403
[33]
  OD450 (平均值): 0.688
[34]
  OD450: 0.208
